From publication PMC7442819, “Taf14 recognizes a common motif in transcriptional machineries and facilitates their clustering by phase separation” (Nature Communications, 2020)

B1: Snf5_(771–800) [Saccharomyces cerevisiae] / Taf14ET (Taf14_(174–244)) [Saccharomyces cerevisiae] (parent)
chain 1: SPPCYIIDHIPGHSLLLSIKLPGKVNTKEE
chain 2: KGSVDLEKLAFGLTKLNEDDLVGVVQMVTDNKTPEMNVTNNVEEGEFIIDLYSLPEGLLKSLWDYVKKNTE
B2: Ino80_(368–390) [Saccharomyces cerevisiae] / Taf14ET (Taf14_(174–244)) [Saccharomyces cerevisiae] (parent)
chain 1: DSKLNIKITLKQYHVKRLKKLIN
chain 2: B1 chain 2
B3: Taf14ET (Taf14_(174–244)) [Saccharomyces cerevisiae] / Sth1EBM (Sth1_(1183–1240)) [Saccharomyces cerevisiae] (parent)
chain 1: EVKSSSVEIINGSESKKKKPKLTVKIKLNKTTVLENNDGKRAEEKPESKSPAKKTAAK
chain 2: B1 chain 2

Variants of: B1
Assay: ITC
Settings: with Taf14ET (Taf14_(174–244)) [Saccharomyces cerevisiae]

In order of rising screen value:
1. chain 1 I19A  0.52 kcal/mol
2. chain 1 L17A  0.55 kcal/mol

Variants of: B2
Assay: ITC
Settings: with Taf14ET (Taf14_(174–244)) [Saccharomyces cerevisiae]

In order of falling screen value:
1. chain 1 I6A  4.41 kcal/mol
2. chain 1 L10A  3.42 kcal/mol

Variants of: B3
Assay: ITC
Settings: with Sth1EBM (Sth1_(1183–1240)) [Saccharomyces cerevisiae]

In order of rising screen value:
1. chain 2 I49R  1.21 kcal/mol
2. chain 2 F47R  5.99 kcal/mol
3. chain 2 F47A  8.16 kcal/mol

Same assay, conditions: with Taf14ET (Taf14_(174–244)) [Saccharomyces cerevisiae]

In order of falling screen value:
1. chain 1 L22A  7.23 kcal/mol
2. chain 1 V24A  6.7 kcal/mol
3. chain 1 L28A  5.27 kcal/mol
